Switch fluorescence ratio data for 120 sequences are collected here from the supplement of paper PMC10126150.

± gives the standard deviation of the averaged measurements.

This series has as its system ATP. The experiment in a line: switch fluorescence ratio, 500 uM ATP over buffer (Cy3 cluster intensity, sum of 5 cycles each) (fold (ratio)); higher = stronger signal-on switching upon ATP binding; sequences stand for … in TCGTCGGCAGCGTCAGATGTGTATAAGAGACAGTTTTTTTTTTTTTTTTTTTTTTTTT…TC. The note with it: aptamer strand: ATP DNA aptamer (quencher-CACCTGGGGGAGTATTGCGGAGGAAGG + anchor), 100 nM annealed; ATP concentration: 500 uM. Summed up:
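Exposure to 500 uM ATP lasted 15 min at 22 °C before imaging, and a selection-buffer image was taken beforehand, for Cy3-labelled switching-strand clusters on a modified Illumina MiSeq flow-cell annealed to 100 nM quencher-labelled ATP aptamer. Five buffer/ATP cycles were run with NaOH stripping and re-annealing between them. The fluorescence ratio per cluster is summed target-cycle over summed buffer-cycle Cy3 intensity, averaged per switch-domain sequence. Clusters outside 100-1000 RFU were excluded.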
TTTTCGGTGC: the switch fluorescence ratio amounted to 1.06 ± 0.1.

With CGCACCCTTT, the switch fluorescence ratio turned out to be 1.093 ± 0.0056.

On to GCCTTTCTGA, for which the switch fluorescence ratio was 0.9855 ± 0.0061.

As to TTGTGGATAA, the switch fluorescence ratio amounted to 1.01 ± 0.0094.

As for TAGGCTCTTT, the switch fluorescence ratio was found to be 0.9777 ± 0.008.

As to TGTGGTGTTT, the switch fluorescence ratio came to 0.984 ± 0.036.

GATCGGATTA: the switch fluorescence ratio turned out to be 0.999 ± 0.024.

For AAGAACTTAG, the switch fluorescence ratio worked out at 1.026 ± 0.0074.

As to TTAGACGGTT, the switch fluorescence ratio stood at 1 ± 0.017.

As for AGGGGAAGGT, the switch fluorescence ratio stood at 0.984 ± 0.021.

For TGAAGGATAC, the switch fluorescence ratio amounted to 1.28 ± 0.23.

Take TTCGGATAGT: the switch fluorescence ratio was 0.98 ± 0.011.

For TATTCTCATG, the switch fluorescence ratio turned out to be 1 ± 0.047.

In the case of TAACAGTAGG, the switch fluorescence ratio worked out at 1.05 ± 0.038.

With GGTATATATG, the switch fluorescence ratio came out at 0.995 ± 0.055.

As for GCGGGCGCCC, the switch fluorescence ratio was 1.011 ± 0.006.

As for TGAATTTTAC, the switch fluorescence ratio is 1.03 ± 0.04.

TTTTTAGTCG: the switch fluorescence ratio was determined as 1 ± 0.036.

On to AAGGGTGCGA, for which the switch fluorescence ratio came out at 1.02 ± 0.04.

CCAGTGGTTG: the switch fluorescence ratio turned out to be 0.9817 ± 0.0056.

As for TGATACCTGT, the switch fluorescence ratio worked out at 0.975 ± 0.068.

Regarding TGTTTTTGGC, the switch fluorescence ratio came out at 1 ± 0.025.

Take TCGGGAAGGT: the switch fluorescence ratio amounted to 1 ± 0.023.

As to GGTTGATGAT, the switch fluorescence ratio was found to be 0.975 ± 0.033.

Regarding AATGTATGGG, the switch fluorescence ratio amounted to 0.99 ± 0.058.

In the case of TTTCGGGACT, the switch fluorescence ratio was determined as 1.03 ± 0.048.

With GTGTAATAAG, the switch fluorescence ratio is 0.99 ± 0.031.

Consider GTGTAGAAAT, for which the switch fluorescence ratio worked out at 0.9834 ± 0.0068.

As to AGAAGGGGTA, the switch fluorescence ratio turned out to be 1.01 ± 0.046.

In the case of ATGATGTTTG, the switch fluorescence ratio turned out to be 0.981 ± 0.039.

Consider AGATTCTGGG, for which the switch fluorescence ratio worked out at 0.971 ± 0.016.

As to TCAATGGCTA, the switch fluorescence ratio amounted to 1.02 ± 0.018.

In the case of GCAAATATTG, the switch fluorescence ratio stood at 1.01 ± 0.018.

With GTGAATAGGG, the switch fluorescence ratio amounted to 0.989 ± 0.028.

Turning to ACTGGGGTTA, the switch fluorescence ratio was determined as 0.9786 ± 0.0021.

With ATATATGCTC, the switch fluorescence ratio turned out to be 1.01 ± 0.016.

Take TGGGGGTTAT: the switch fluorescence ratio amounted to 0.993 ± 0.042.

In the case of TCTTATAAGC, the switch fluorescence ratio came out at 0.984 ± 0.028.

With GCATTTTTAT, the switch fluorescence ratio is 1.02 ± 0.037.

On to TCGCAGGGGG, for which the switch fluorescence ratio turned out to be 0.992 ± 0.043.

On to TGTGAGGGCG, for which the switch fluorescence ratio was found to be 1.06 ± 0.015.

On to CTAAGGGGTG, for which the switch fluorescence ratio was 1.022 ± 0.0057.

GGTCGTTTTG: the switch fluorescence ratio turned out to be 0.991 ± 0.025.

As for GTGTTGCGGC, the switch fluorescence ratio was 0.986 ± 0.016.

For TATGGTATGC, the switch fluorescence ratio was 1.0138 ± 0.00069.

On to CATGGATAGC, for which the switch fluorescence ratio was 0.963 ± 0.012.

As to TAGGGGTCGG, the switch fluorescence ratio is 0.981 ± 0.048.

TATATTTTGT: the switch fluorescence ratio was 1.02 ± 0.016.

In the case of GGACGGGGGT, the switch fluorescence ratio turned out to be 1.01 ± 0.038.

On to CTAAGGGGCA, for which the switch fluorescence ratio came out at 1 ± 0.019.

In the case of GAGAGGGTAC, the switch fluorescence ratio was 1.03 ± 0.063.

ATTGTGCTGA: the switch fluorescence ratio is 0.9481 ± 0.0073.

On to TAGGGTCTGT, for which the switch fluorescence ratio came out at 0.999 ± 0.022.

Consider AGATAACTCA, for which the switch fluorescence ratio stood at 1.02 ± 0.048.

AAGGAAGAGG: the switch fluorescence ratio was 0.984 ± 0.064.

Turning to CAGCGTCCCT, the switch fluorescence ratio was found to be 1.07 ± 0.014.

With CGTTGTATGG, the switch fluorescence ratio is 1.01 ± 0.046.

Regarding ATCCTTAAGG, the switch fluorescence ratio was 0.961 ± 0.026.

Consider AGTGAGTCTG, for which the switch fluorescence ratio came out at 0.995 ± 0.053.

Consider TCACGGACAG, for which the switch fluorescence ratio worked out at 1.3 ± 0.057.

With CTGAAGTTGT, the switch fluorescence ratio came out at 1.01 ± 0.032.

On to AATATTGGTA, for which the switch fluorescence ratio is 1.01 ± 0.018.

In the case of TTTACTTTGG, the switch fluorescence ratio was found to be 0.982 ± 0.034.

Regarding TTACGGGGTC, the switch fluorescence ratio was determined as 1.07 ± 0.12.

Consider CATAAGATGT, for which the switch fluorescence ratio was found to be 1 ± 0.021.

Consider TTGTAGCGGT, for which the switch fluorescence ratio stood at 1.05 ± 0.034.

Consider ATTTGTCGTA, for which the switch fluorescence ratio is 0.997 ± 0.029.

As to TTGTATGATT, the switch fluorescence ratio came to 1.013 ± 0.0075.

As for AACAGGGGCT, the switch fluorescence ratio is 1.09 ± 0.12.

As for GGGGCGGTTT, the switch fluorescence ratio amounted to 1.01 ± 0.046.

CAACTATTTG: the switch fluorescence ratio was determined as 1 ± 0.013.

Regarding CTTTGGGGAT, the switch fluorescence ratio is 1.05 ± 0.12.

On to ATCATGTGCA, for which the switch fluorescence ratio is 0.9627 ± 0.0073.

On to TCCGACGTAG, for which the switch fluorescence ratio is 1.19 ± 0.31.

For AACTCACGGG, the switch fluorescence ratio came to 1.63 ± 0.083.

As to GAAGGATAGG, the switch fluorescence ratio amounted to 0.975 ± 0.029.

Turning to GTCAGCTAAC, the switch fluorescence ratio was 1.48 ± 0.053.

As to CTATGGGTTT, the switch fluorescence ratio was 1.024 ± 0.0032.

As to CTTTGGTGTC, the switch fluorescence ratio was 1.01 ± 0.029.

On to ATGAATGAAC, for which the switch fluorescence ratio was 1.03 ± 0.063.

Turning to TGAGGTTTTT, the switch fluorescence ratio turned out to be 1.28 ± 0.59.

As for AATCGGGGAT, the switch fluorescence ratio was 1 ± 0.012.

Regarding TATATAGCGC, the switch fluorescence ratio is 0.983 ± 0.044.

Take TACAGGCTCG: the switch fluorescence ratio was 1.007 ± 0.01.

With TTCCATCGGG, the switch fluorescence ratio stood at 0.993 ± 0.033.

Consider ATTTAGGGAT, for which the switch fluorescence ratio came out at 1.02 ± 0.051.

For GGGAAACAAT, the switch fluorescence ratio was 1.55 ± 0.91.

In the case of TTGGTGGGTT, the switch fluorescence ratio stood at 0.994 ± 0.04.

As to ATCTTAGTTA, the switch fluorescence ratio turned out to be 0.999 ± 0.026.

In the case of TCCAGAAGTT, the switch fluorescence ratio was 1.07 ± 0.057.

TTTCTATATA: the switch fluorescence ratio is 1 ± 0.052.

For the sequence ATTAGTGAGC, the switch fluorescence ratio was 1.03 ± 0.051.

Take TTTTTAGTGT: the switch fluorescence ratio came to 1.01 ± 0.035.

In the case of GGGGGTGCTT, the switch fluorescence ratio worked out at 1.03 ± 0.056.

With ACTGGAGGAG, the switch fluorescence ratio came out at 1.01 ± 0.017.

On to TCGTGCGGTT, for which the switch fluorescence ratio was found to be 1.01 ± 0.032.

For the sequence CATTCTGATC, the switch fluorescence ratio was 1 ± 0.056.

For TCACGGTAAT, the switch fluorescence ratio was 1.16 ± 0.097.

As to CCATTTTTTG, the switch fluorescence ratio stood at 0.993 ± 0.028.

Regarding AAAGGTGTTG, the switch fluorescence ratio worked out at 1.16 ± 0.23.

Regarding AGTTAGTTCG, the switch fluorescence ratio is 0.969 ± 0.043.

With TATATATTTA, the switch fluorescence ratio turned out to be 0.988 ± 0.024.

For the sequence AGGATATCAG, the switch fluorescence ratio was found to be 0.991 ± 0.027.

As to GGGGGCAGCA, the switch fluorescence ratio amounted to 1.01 ± 0.04.

On to GGGTGATGGT, for which the switch fluorescence ratio stood at 0.964 ± 0.053.

As for GAAATTGCAT, the switch fluorescence ratio turned out to be 0.996 ± 0.02.

For the sequence TTCTGAGGTG, the switch fluorescence ratio came to 1.074 ± 0.0026.

GGTCCGGCAC: the switch fluorescence ratio turned out to be 1.079 ± 0.009.

In the case of AGCGGGTCCG, the switch fluorescence ratio came to 0.987 ± 0.017.

Turning to GTGGCCCTAT, the switch fluorescence ratio was found to be 0.998 ± 0.027.

With TTTTCGGTGA, the switch fluorescence ratio was found to be 0.9713 ± 0.0057.

On to TGGATTTGTC, for which the switch fluorescence ratio turned out to be 0.99 ± 0.024.

As to CGGTGGACTA, the switch fluorescence ratio was determined as 1.008 ± 0.01.

As to GAGTTCCCGA, the switch fluorescence ratio stood at 0.977 ± 0.048.

As to TTACATGTTC, the switch fluorescence ratio amounted to 0.996 ± 0.025.

Consider CTACGAAGTA, for which the switch fluorescence ratio was found to be 1.01 ± 0.015.

With TAACAGATTT, the switch fluorescence ratio worked out at 0.958 ± 0.0034.

With AGTTTCTTTT, the switch fluorescence ratio is 0.994 ± 0.0026.

With GGGGAGTGAG, the switch fluorescence ratio was found to be 0.986 ± 0.017.

Take GACAGGTCGT: the switch fluorescence ratio amounted to 1.043 ± 0.0054.
